The values below come from US20240344138A1, “TARGETED THERAPIES IN CANCER” (Feng Biosciences, Inc, priority 2021, published 2024).

The test system of experiment [1] is MDSC functions. Particulars: pre-clinical models; cited from earlier work.
For experiment [2], the system named is colorectal cancer patients. In words: Clinical trial of navicixizumab and chemotherapy in colorectal cancer, outcome by TME phenotype. The experiment is classed as in vivo, human. As to the method:
A clinical trial is run to show benefit of anti-angiogenesis therapy in CRC by identifying patients based on their stromal phenotypes. RNA gene signatures are analyzed from biopsy samples prior to treatment with navicixizumab and chemotherapy (such as paclitaxel, FOLFOX, FOLFIRI, etc.). The stromal phenotypes are correlated with ORR, PFS, and OS. The analysis includes 40 colorectal cancer patients with treated with navicizumab and chemotherapy in the first-line setting.

The test system of experiment [3] is advanced solid tumors in colorectal, triple-negative breast cancer, gastric, and ovarian cancers. As to the kind of experiment: Phase 2 open-label basket study of navicixizumab monotherapy or with paclitaxel or irinotecan, retrospective analysis by TME phenotype. Particulars: combined A and IS groups. The experiment is classed as in vivo, human. Here is the method: A retrospective analysis of a signal-finding Phase 2 clinical trial is conducted. Patient samples from thirty patients in a phase 2, multicenter, open-label basket study of navicixizumab monotherapy or in combination with the chemotherapeutics paclitaxel or irinotecan in patients with advanced solid tumors in colorectal, triple-negative breast cancer, gastric, and ovarian cancers. Patients in the combined A and IS groups that received navicixizumab monotherapy have an ORR greater than 40%. Patients in the combined A and IS groups that receive navicixizumab and chemotherapy have an ORR greater than 50%.

Experiment [4] deals with non-small cell lung cancer (NSCLC). Particulars: cited from earlier work.
Experiment [5] shares this test system. In words: Retrospective ANN analysis of Phase 3 trial of tislelizumab with pemetrexed and a platinum agent. The experiment is classed as in vivo, human. As to conditions: biomarker positive group (IA or IS). The text has this: A retrospective analysis of 100 RNA signatures from a Phase 3 clinical trial of non-small cell lung cancer (NSCLC) with the anti-PD-1 checkpoint inhibitor tislelizumab in combination with the chemotherapeutic agents pemetrexed and a platinum agent (cisplatin or carboplatin) is run using the ANN method. […] After the retrospective ANN analysis, the biomarker positive group (IA or IS) is shown to have a PFS of 15.0 months with the combination therapy of tislelizumab and chemotherapy.

Regarding `CCCc1nn(C)c2c(=O)[nH]c(-c3cc(S(=O)(=O)N4CCN(C)CC4)ccc3OCC)nc12` [sildenafil], in experiment [1], the “effect on MDSC functions” value was “significantly inhibited the MDSC functions”.

B1: navicixizumab and chemotherapy: anti-VEGF/anti-DLL4 bispecific antibody navicixizumab with chemotherapy (such as paclitaxel, FOLFOX, FOLFIRI, irinotecan) (antibody, chains of the INN, looked up, V domains shown)
VH: QVQLVQSGAEVKKPGASVKISCKASGYSFTAYYIHWVKQAPGQGLEWIGYISNYNRATNYNQKFKGRVTFTTDTSTSTAYMELRSLRSDDTAVYYCARDYDYDVGMDYWGQGTLVTVSS
VL: DIVMTQSPDSLAVSLGERATISCRASESVDNYGISFMKWFQQKPGQPPKLLIYAASNQGSGVPDRFSGSGSGTDFTLTISSLQAEDVAVYYCQQSKEVPWTFGGGTKVEIK
VH2: QVQLVQSGAEVKKPGASVKVSCKASGYTFTNYWMHWVRQAPGQGLEWMGDINPSNGRTSYKEKFKRRVTLSVDKSSSTAYMELSSLRSEDTAVYFCTIHYDDKYYPLMDYWGQGTLVTVSS
VL2: DIVMTQSPDSLAVSLGERATISCRASESVDNYGISFMKWFQQKPGQPPKLLIYAASNQGSGVPDRFSGSGSGTDFTLTISSLQAEDVAVYYCQQSKEVPWTFGGGTKVEIK
modifications: plus chemotherapy
As for B1, the “ORR (%)” value in experiment [2] (A (n = 10)) was found to be 90%; in experiment [2] (IA (n = 10)) it was 30%; in experiment [2] (ID (n = 10)), 45%; in experiment [2] (IS (n = 10)), 80%. In addition, the “OS (months)” value in experiment [2] (A (n = 10)) was 26 months; in experiment [2] (IA (n = 10)) it was 15 months; in experiment [2] (ID (n = 10)), 20 months; in experiment [2] (IS (n = 10)), 25 months. The “PFS (months)” value was 15 months in experiment [2] (A (n = 10)), 10 months in experiment [2] (IA (n = 10)), 13 months in experiment [2] (ID (n = 10)) and 16 months in experiment [2] (IS (n = 10)). For the same molecule, the ORR result in experiment [3] is recorded as “greater than 50%”.

B2: tislelizumab plus chemotherapy: anti-PD-1 checkpoint inhibitor tislelizumab with pemetrexed and a platinum agent (cisplatin or carboplatin) (antibody, chains of the INN, looked up)
heavy: QVQLQESGPGLVKPSETLSLTCTVSGFSLTSYGVHWIRQPPGKGLEWIGVIYADGSTNYNPSLKSRVTISKDTSKNQVSLKLSSVTAADTAVYYCARAYGNYWYIDVWGQGTTVTVSSASTKGPSVFPLAPCSRSTSESTAALGCLVKDYFPEPVTVSWNSGALTSGVHTFPAVLQSSGLYSLSSVVTVPSSSLGTKTYTCNVDHKPSNTKVDKRVESKYGPPCPPCPAPPVAGGPSVFLFPPKPKDTLMISRTPEVTCVVVAVSQEDPEVQFNWYVDGVEVHNAKTKPREEQFNSTYRVVSVLTVVHQDWLNGKEYKCKVSNKGLPSSIEKTISKAKGQPREPQVYTLPPSQEEMTKNQVSLTCLVKGFYPSDIAVEWESNGQPENNYKTTPPVLDSDGSFFLYSKLTVDKSRWQEGNVFSCSVMHEALHNHYTQKSLSLSLG
light: DIVMTQSPDSLAVSLGERATINCKSSESVSNDVAWYQQKPGQPPKLLINYAFHRFTGVPDRFSGSGYGTDFTLTISSLQAEDVAVYYCHQAYSSPYTFGQGTKLEIKRTVAAPSVFIFPPSDEQLKSGTASVVCLLNNFYPREAKVQWKVDNALQSGNSQESVTEQDSKDSTYSLSSTLTLSKADYEKHKVYACEVTHQGLSSPVTKSFNRGEC
modifications: plus pemetrexed and platinum chemotherapy
B2: the “hazard ratio (PFS)” value in experiment [4] (tislelizumab plus chemotherapy versus chemotherapy alone) was 0.645. For the same molecule, the “median PFS” value in experiment [4] (without stratification into stromal phenotypes) was 9.7 mo. The PFS in experiment [5] came out at 15.0 months.
